Data as given in patent US20080175847A1 (Genentech, published 2008).

Columns and labels:
[1] = biological target: T1, C-terminal His-tagged human DLL4 (amino acid 1-404) (human, UniProt Q9NR61 26-404); assay: SPR BIAcore-3000, antibody coupled to CM5 chip, DLL4-His injected, 25 C
T1 construct: range 26-404; the text calls it human DLL4-His; also called DLL4-His; human DLL4-His; not shown: C-terminal His tag
Method: (§1) To determine the binding affinity of the anti-DLL4 Mabs, surface plasmon resonance (SRP) measurement with a BIAcore™-3000 was used (BIAcore, Inc., Piscataway, N.J.). Briefly, carboxymethylated dextran biosensor chips (CM5, BIAcore Inc.) were activated with N-ethyl-N′-(3-dimethylaminopropyl)-carbodiimide hydrochloride (EDC) and N-hydroxysuccinimide (NHS) according to the supplier's instructions. […] Next, IM ethanolamine was injected to block unreacted groups. […] Association rates (kon) and dissociation rates (koff) were calculated using a simple one-to-one Langmuir binding model (BIAcore Evaluation Software version 3.2). The equilibrium dissociation constant (Kd) was calculated as the ratio koff/kon.

His-tagged murine DLL4 = biological target: T2, His-tagged murine DLL4 (murine, UniProt Q9JI71 27-405, limits assumed); assay: as above
T2 construct: domain: ECD5.5; also called murine DLL4-His; murine Delta4 (ECD5.5); not shown: His tag
T2 sequence (Q9JI71 27-405 limits assumed): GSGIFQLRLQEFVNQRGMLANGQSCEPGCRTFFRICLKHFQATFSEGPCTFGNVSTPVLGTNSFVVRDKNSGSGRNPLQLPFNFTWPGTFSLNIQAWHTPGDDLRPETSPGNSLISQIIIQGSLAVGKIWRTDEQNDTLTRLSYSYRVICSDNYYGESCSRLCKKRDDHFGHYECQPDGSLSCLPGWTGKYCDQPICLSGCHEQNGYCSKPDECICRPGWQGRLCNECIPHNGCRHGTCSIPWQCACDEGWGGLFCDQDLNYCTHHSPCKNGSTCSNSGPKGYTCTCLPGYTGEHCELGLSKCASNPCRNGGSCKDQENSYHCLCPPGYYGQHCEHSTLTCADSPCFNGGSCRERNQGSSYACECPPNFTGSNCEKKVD
Method: as §1

T1 sequence (Q9NR61 26-404 limits assumed): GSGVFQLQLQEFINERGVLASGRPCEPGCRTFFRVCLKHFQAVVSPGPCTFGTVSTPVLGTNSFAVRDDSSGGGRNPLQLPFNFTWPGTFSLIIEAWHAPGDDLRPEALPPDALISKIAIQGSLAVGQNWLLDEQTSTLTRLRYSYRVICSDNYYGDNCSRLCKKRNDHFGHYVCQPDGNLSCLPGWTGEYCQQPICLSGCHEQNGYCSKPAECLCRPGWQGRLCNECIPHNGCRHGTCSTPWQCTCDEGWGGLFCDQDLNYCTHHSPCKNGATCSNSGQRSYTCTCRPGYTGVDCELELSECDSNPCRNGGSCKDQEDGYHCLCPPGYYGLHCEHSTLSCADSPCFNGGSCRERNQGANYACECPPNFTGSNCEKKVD

| Binder | Kd [1] | koff [1] | kon [1] | Kd (His-tagged murine DLL4) | koff (His-tagged murine DLL4) | kon (His-tagged murine DLL4) |
| --- | --- | --- | --- | --- | --- | --- |
| YW26 (antibody, V domains shown, Only the six HVRs are tied to the clone; also called clone 152.26; anti-DLL4 antibody) VH: EVQLVESGGGLVQPGGSLRLSCAASGFTFTDNWISWVRQAPGKGLEWVGVINPNSGSTDYADSVKGRFTISADTSKNTAYLQMNSLRAEDTAVYYCARDNFGGYFDYWGQGTLVTVSS VL: DIQMTQSPSSLSASVGDRVTITCRASQDVSTAVAWYQQKPGKAPKLLIYSASFLYSGVPSRFSGSGSGTDFTLTISSLQPEDFATYYCQQSYTTPPTFGQGTKVEIK | 25000 pM | 0.00074 s⁻¹ | 30000 M⁻¹ s⁻¹ | 28000 pM | 0.0016 s⁻¹ | 57000 M⁻¹ s⁻¹ |
| YW26.6 (antibody, V domains shown, Only the six HVRs are tied to the clone; also called clone 152.26.6) VH: EVQLVESGGGLVQPGGSLRLSCAASGFTFTDNWISWVRQAPGKGLEWVGLINPQSGSSDYADSVKGRFTISADTSKNTAYLQMNSLRAEDTAVYYCARDNFGGYFDYWGQGTLVTVSS VL: DIQMTQSPSSLSASVGDRVTITCRASQDVSTAVAWYQQKPGKAPKLLIYSASFLYSGVPSRFSGSGSGTDFTLTISSLQPEDFATYYCQQSYTGQSTFGQGTKVEIK | 250 pM | – | – | – | – | – |
| YW26.14 (antibody, V domains shown, also called clone 152.26.14) VH: EVQLVESGGGLVQPGGSLRLSCAASGFSFRDNWISWVRQAPGKGLEWVGVINPNSGSTDYADSVKGRFTISADTSKNTAYLQMNSLRAEDTAVYYCARDNFGGYFDYWGQGTLVTVSS VL: DIQMTQSPSSLSASVGDRVTITCRASQDVSTAVAWYQQKPGKAPKLLIYSASFLYSGVPSRFSGSGSGTDFTLTISSLQPEDFATYYCQQSVNGPATFGQGTKVEIK | 370 pM | 6.6e-05 s⁻¹ | 180000 M⁻¹ s⁻¹ | 220 pM | 7.3e-05 s⁻¹ | 330000 M⁻¹ s⁻¹ |
| YW26.34 (antibody, V domains shown, Only the six HVRs are tied to the clone; also called clone 152.26.34) VH: EVQLVESGGGLVQPGGSLRLSCAASGFTFTDNWISWVRQAPGKGLEWVGLINPTSGSTIYADSVKGRFTISADTSKNTAYLQMNSLRAEDTAVYYCARDNFGGYFDYWGQGTLVTVSS VL: DIQMTQSPSSLSASVGDRVTITCRASQDVSTAVAWYQQKPGKAPKLLIYSASFLYSGVPSRFSGSGSGTDFTLTISSLQPEDFATYYCQQSYTGPSTFGQGTKVEIK | 350 pM | 6.7e-05 s⁻¹ | 190000 M⁻¹ s⁻¹ | 180 pM | 6.5e-05 s⁻¹ | 360000 M⁻¹ s⁻¹ |
